In patent US20040005687A1, “Kinase crystal structures” (priority 2001, published 2004):
Like-named read-outs stand apart in the source and are kept apart here. Square brackets hold non-standard residues; d marks the D form. Ends that are not written are not given here. Peptide text beside a SMILES is read from it. pS = N[C@@H](COP(=O)(O)O)C(=O)O

Experiments:
[1] = target: T1, His tagged pΔPH-PKB-ΔC wild type (Homo sapiens, UniProt P31751); assay: PIFtide responsiveness of His tagged pΔPH-PKB-ΔC wild type expressed in HEK cells; type: biochemical
T1 construct: pΔPH-PKB-ΔC (residues 146 to 460, phosphorylated in vitro on Thr-309); His tag; made in house; host or cells: HEK cells (transient expression), purified on Ni-NTA
Experimental: To test the notion that a hydrophobic groove is induced in PKB to engage the hydrophobic motif, and activate the kinase, a series of His tagged pΔPH-PKB-ΔC hydrophobic groove mutants was prepared and their responsiveness to PIFtide assessed. PKB mutants were transiently expressed in HEK cells, phosphorylated in vitro with PDK1, and purified using Ni-NTA agarose.
Wild type PKB prepared using this procedure was stimulated ˜5-fold by 130 μM PIFtide (FIG. 6B).
(§1) PKB was assayed essentially as described by Andjelkovic et al. (1999) with 30 μM Crosstide (GRPRTSSAEG) as substrate except the protein kinase A inhibitor peptide was not added to the reactions. For peptide stimulation experiments the various peptides were dissolved in water and added to the kinase assay mix prior to adding the PKB protein. Peptides were synthesized by Franz Fischer at the FMI or purchased from Neosystem, Strasburg, France.

[2] = target: T2, ΔPH-PKB phosphorylated on Thr 309 (Homo sapiens, UniProt P31751); assay: Protein kinase B assay, peptide stimulation of ΔPH-PKB phosphorylated on Thr 309; type: biochemical
T2 construct: ΔPH-PKBβ (residues 146-481) on Thr309 Using PDK1; 6xHis (pFastBacHTa, TEV-cleavable) (N, cleaved yes); made in house; host or cells: Sf9 insect cells / baculovirus
Experimental: as §1
(§2) All experiments were performed in either duplicate or triplicate.

[3] = target: T3, pΔPH-PKB-ΔC (PKBβ residues 146 to 460, phosphorylated in vitro on Thr-309) (Homo sapiens, UniProt P31751); assay: Protein kinase B assay, peptide stimulation of pΔPH-PKB-ΔC (Crosstide substrate); type: biochemical; conditions: for maximal fold induction at 600 µM: read-out: maximum activation (fold stimulation) of pΔPH-PKB-ΔC kinase activity; for fold lower affinity than PIFtide (from EC50 values): relative to PIFtide
T3 construct: pΔPH-PKB-ΔC (residues 146 to 460, phosphorylated in vitro on Thr-309); 6xHis (pFastBacHTa, TEV-cleavable) (N, cleaved yes); made in house; host or cells: Sf9 insect cells / baculovirus
Experimental: To test the model that Ser 474 phosphorylation promotes an interaction between the hydrophobic motif and the induced hydrophobic groove of the N-terminal lobe, thereby causing an allosteric activation of the kinase, the ability of peptides modelled on the hydrophobic motif of PKB to activate the enzyme via an intermolecular association with the N-terminal lobe was assessed.
as §1, §2

[4] = target: T4, ΔPH-PKB-ΔC (PKBβ residues 146 to 460, not phosphorylated on Thr-309) (Homo sapiens, UniProt P31751); assay: Protein kinase B assay, peptide stimulation of ΔPH-PKB-ΔC with unphosphorylated Thr 309; type: biochemical
T4 construct: ΔPH-PKB-ΔC(residues 146 to 460, not phosphorylated on Thr-309); 6xHis (pFastBacHTa, TEV-cleavable) (N, cleaved yes); made in house; host or cells: Sf9 insect cells / baculovirus
Experimental: as §1, §2

[5] = target: T5, ΔPH-PKB phosphorylated on both Thr 309 and Ser 474 (Homo sapiens, UniProt P31751); assay: Protein kinase B assay, peptide stimulation of ΔPH-PKB phosphorylated on both Thr 309 and Ser 474; type: biochemical
T5 construct: ΔPH-PKBβ (residues 146-481) on Thr309 Using PDK1; 6xHis (pFastBacHTa, TEV-cleavable) (N, cleaved yes); made in house; host or cells: Sf9 insect cells / baculovirus
Experimental: as §1, §2

[6] = target: His tagged pΔPH-PKB-ΔC, wild type, expressed in HEK cells (human) (UniProt P31751); assay: cell-based or functional assay
[7] = target: His tagged pΔPH-PKB-ΔC V194A-V198A mutant (human) (UniProt P31751); assay: cell-based or functional assay
[8] = target: pΔPH-PKBβ-ΔC (human PKBβ residues 146-460, phosphorylated in vitro on Thr-309) (human) (UniProt P31751); assay: cell-based or functional assay
[9] = target: ΔPH-PKB (human PKBβ residues 146-481) phosphorylated on Thr 309 (human) (UniProt P31751); assay: cell-based or functional assay
[10] = target: ΔPH-PKBβ-ΔC (human PKBβ residues 146-460, not phosphorylated on Thr-309) (human) (UniProt P31751); assay: isothermal titration calorimetry
[11] = target: pΔPH-PKBβ-ΔC (human PKBβ residues 146-460, phosphorylated in vitro on Thr-309) (human) (UniProt P31751); assay: isothermal titration calorimetry, PIFtide titrated into the kinase domain
[12] = target: ΔPH-PKBβ-ΔC (human PKBβ residues 146-460, not phosphorylated on Thr-309) (human) (UniProt P31751); assay: as above
[13] = target: pΔPH-PKBβ-ΔC (human PKBβ residues 146-460, phosphorylated in vitro on Thr-309) (human) (UniProt P31751); assay: cell-based or functional assay; remark: listed apart in the source

T3 sequence (P31751 146-460, stated change not applied): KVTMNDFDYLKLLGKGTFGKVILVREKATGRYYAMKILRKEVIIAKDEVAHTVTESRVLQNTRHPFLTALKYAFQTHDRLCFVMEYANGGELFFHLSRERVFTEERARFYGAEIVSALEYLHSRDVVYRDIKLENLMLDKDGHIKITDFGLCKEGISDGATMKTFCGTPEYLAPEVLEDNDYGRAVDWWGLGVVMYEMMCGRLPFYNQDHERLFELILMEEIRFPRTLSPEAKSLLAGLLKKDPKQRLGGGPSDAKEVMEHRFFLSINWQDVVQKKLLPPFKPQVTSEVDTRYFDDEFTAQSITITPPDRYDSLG
T1 sequence (P31751 146-460, stated change not applied): as above
His tagged pΔPH-PKB-ΔC V194A-V198A mutant (human), sequence (P31751 146-460 V194A/V198A): as the sequence (P31751 146-460, stated change not applied) above, with V49A, V53A counted along it
His tagged pΔPH-PKB-ΔC, wild type, expressed in HEK cells (human), sequence (P31751 146-460, stated change not applied): as the sequence (P31751 146-460, stated change not applied) above
T4 sequence (P31751 146-460, stated change not applied): as above
T2 sequence (P31751 146-481, stated change not applied): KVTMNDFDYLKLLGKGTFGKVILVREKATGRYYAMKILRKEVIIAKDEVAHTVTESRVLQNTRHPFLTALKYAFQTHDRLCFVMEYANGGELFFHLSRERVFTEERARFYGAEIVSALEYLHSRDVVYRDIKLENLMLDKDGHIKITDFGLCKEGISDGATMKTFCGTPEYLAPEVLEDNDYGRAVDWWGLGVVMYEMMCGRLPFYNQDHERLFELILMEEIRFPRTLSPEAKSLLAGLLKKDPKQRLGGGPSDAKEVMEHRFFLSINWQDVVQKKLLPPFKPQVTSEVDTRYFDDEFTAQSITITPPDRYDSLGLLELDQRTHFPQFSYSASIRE
T5 sequence (P31751 146-481, stated change not applied): as above

## CC[C@H](C)[C@H](NC(=O)[C@H](Cc1ccc(O)cc1)NC(=O)[C@H](CC(=O)O)NC(=O)[C@H](Cc1ccccc1)NC(=O)[C@H](CC(=O)O)NC(=O)[C@H](CCCNC(=N)N)NC(=O)[C@H](Cc1ccccc1)NC(=O)[C@H](CCSC)NC(=O)[C@H](CCC(=O)O)NC(=O)[C@H](CCC(N)=O)NC(=O)[C@H](CCC(=O)O)NC(=O)[C@H](CCC(=O)O)NC(=O)[C@H](CCC(=O)O)NC(=O)[C@H](CO)NC(=O)[C@H](CC(C)C)NC(=O)[C@@H](NC(=O)[C@H](CCCNC(=N)N)NC(=O)[C@@H]1CCCN1C(=O)[C@H](CCC(=O)O)NC(=O)[C@@H](N)CCCNC(=N)N)[C@@H](C)CC)C(=O)N[C@@H](C)C(=O)N[C@@H](CC(=O)O)C(=O)N[C@@H](Cc1c[nH]c2ccccc12)C(=O)O [PIFtide, reference compound] (H-REPRILSEEEQEMFRDFDYIADW-OH; N-terminus and C-terminus assumed)
[1]; read-out: stimulation of wild type PKB prepared from HEK cells
  fold induction at 130 µM: ~5
[2]
  activation of ΔPH-PKB phosphorylated on Thr 309: 5 fold
[3]
  maximal fold induction at 600 µM: 15

## CC[C@H](C)[C@H](NC(=O)[C@H](CO)NC(=O)[C@H](C)NC(=O)[C@H](CO)NC(=O)[C@H](Cc1ccc(O)cc1)NC(=O)[C@H](CC(=O)O)NC(=O)[C@H](Cc1ccccc1)NC(=O)[C@H](CCC(N)=O)NC(=O)[C@@H]1CCCN1C(=O)[C@H](Cc1ccccc1)NC(=O)[C@H](Cc1c[nH]cn1)NC(=O)[C@@H](NC(=O)[C@H](CCCNC(=N)N)NC(=O)[C@H](CCC(N)=O)NC(=O)[C@H](CC(=O)O)NC(=O)[C@H](CC(C)C)NC(=O)[C@H](CCC(=O)O)NC(=O)[C@H](CC(C)C)NC(=O)[C@H](CC(C)C)NC(=O)CN)[C@@H](C)O)C(=O)N[C@@H](CCCNC(=N)N)C(=O)N[C@@H](CCC(=O)O)C(=O)O [PKB HM-D] (H-GLLELDQRTHFPQFDYSASIRE-OH; N-terminus and C-terminus assumed)
[3]
  maximal fold induction at 600 µM: 3
  fold lower affinity than PIFtide (from EC50 values): ~1000 fold

## CC[C@H](C)[C@H](NC(=O)[C@H](CO)NC(=O)[C@H](C)NC(=O)[C@H](CO)NC(=O)[C@H](Cc1ccc(O)cc1)NC(=O)[C@H](COP(=O)(O)O)NC(=O)[C@H](Cc1ccccc1)NC(=O)[C@H](CCC(N)=O)NC(=O)[C@@H]1CCCN1C(=O)[C@H](Cc1ccccc1)NC(=O)[C@H](Cc1c[nH]cn1)NC(=O)[C@@H](NC(=O)[C@H](CCCNC(=N)N)NC(=O)[C@H](CCC(N)=O)NC(=O)[C@H](CC(=O)O)NC(=O)[C@H](CC(C)C)NC(=O)[C@H](CCC(=O)O)NC(=O)[C@H](CC(C)C)NC(=O)[C@H](CC(C)C)NC(=O)CN)[C@@H](C)O)C(=O)N[C@@H](CCCNC(=N)N)C(=O)N[C@@H](CCC(=O)O)C(=O)O [PKB HM-P, GLLELDQRTHFPQFpSYSASIRE] (H-GLLELDQRTHFPQF[pS]YSASIRE-OH; N-terminus and C-terminus assumed)
[4]
  activation of ΔPH-PKB-ΔC with unphosphorylated Thr 309 (in words): unable to activate
[5]
  further activation of ΔPH-PKB phosphorylated on both Thr 309 and Ser 474 (in words): did not further activate
[1]
  activation of wild type PKB prepared from HEK cells (in words): did not elicit measurable activation
[3]
  maximal fold induction at 600 µM: 4
[3]; listed as phosphorylated HM-peptide
  fold lower affinity than PIFtide (from EC50 values): ~1000 fold

## GLLELDQRTHFPQFSYSASIRE [PKB HM-S]
[3]; Crosstide substrate, dose response FIG. 5
  stimulation of pΔPH-PKB-ΔC kinase activity (in words): did not stimulate

## MFRDFDYIADW [PIFtide1, 11-residue peptide encompassing the six-residue hydrophobic motif of PIFtide]
[3]; PIFtide concentrations 210-250 μM, PKB HM-peptide up to 1.2 mM, FIG. 6A
  activation of pΔPH-PKB-ΔC by modified PIFtide and HM peptides (in words): essentially recapitulates the activation

## PIFtide (peptide)
[6]
  stimulation of kinase activity by 130 µM PIFtide: 5 fold
[7]
  PIFtide activation relative to wild type (% of wild type): 25
[8]
  EC50 of kinase activation: 3 µM
  peptide concentration giving maximum activation: 20 µM
  specific activity when maximally activated by PIFtide: 350 nmol/min/mg
  stimulation of kinase activity towards Crosstide: 15 fold
[9]
  stimulation of kinase activity towards Crosstide: 5 fold
[10]
  enthalpy change (ΔH): -16 kcal/mol
  entropy term (TΔS): -9.2 kcal/mol
[11]
  Kd: 6 µM
[12]
  Kd: 5.5 µM

## GLLELDQRTHFPQF[pS]YSASIRE [PKB HM-P]
[13]
  EC50 of kinase activation (estimated from FIG. 5A): 2300 µM
  fold lower affinity than PIFtide, from estimated EC50: 1000 fold
  stimulation of kinase activity towards Crosstide: 4 fold

## GLLELDQRTHFPQFDYSASIRE [PKB HM-D]
[13]
  EC50 of kinase activation (estimated from FIG. 5A): 3600 µM
  fold lower affinity than PIFtide, from estimated EC50: 1000 fold
  stimulation of kinase activity towards Crosstide: 3 fold
